Values quoted from earlier work, collected in article PMC10839879.

Target: RNH1 (Homo sapiens) (UniProt P13489)
Chain of UniProt P13489 (P13489 2-461): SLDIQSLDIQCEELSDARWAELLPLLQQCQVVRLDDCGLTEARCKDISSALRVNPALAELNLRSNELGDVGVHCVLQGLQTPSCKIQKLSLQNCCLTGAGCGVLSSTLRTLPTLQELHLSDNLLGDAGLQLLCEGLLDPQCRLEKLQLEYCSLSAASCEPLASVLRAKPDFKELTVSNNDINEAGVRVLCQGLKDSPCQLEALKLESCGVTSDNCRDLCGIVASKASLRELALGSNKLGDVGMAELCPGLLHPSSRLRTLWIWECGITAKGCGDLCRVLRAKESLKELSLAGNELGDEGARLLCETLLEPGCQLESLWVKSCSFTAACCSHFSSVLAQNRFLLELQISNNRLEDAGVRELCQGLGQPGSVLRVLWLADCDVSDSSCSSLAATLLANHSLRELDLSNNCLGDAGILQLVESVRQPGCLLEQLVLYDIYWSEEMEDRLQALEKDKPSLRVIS

Kd: 0.001 pM
Substance: angiogenin (from UniProt P03950)
